From publication doi:10.1101/2023.11.28.569006 come the findings set out here.

For assay [1], the target named is hetero-oligomers with three or more ADGroEL_SacSm in their composition. Kind of assay: pull-down.
For assay [2], the target named is artificial chaperone ADGroEL_SacSm (complete heptameric ring) (not stated | Sulfolobus acidocaldarius). Kind of assay: pull-down.

B1: denatured alpha-Lactalbumin (αLA) (natural protein)
chain: EQLTKCEVFRELKDLKGYGGVSLPEWVCTTFHTSGYDTQAIVQNNDSTEYGLFQINNKIWCKDDQNPHSSNICNISCDKFLDDDLTDDIMCVKKILDKVGINYWLAHKALCSEKLDQWLCEKL
In the case of B1, in assay [1], the stoichiometry N (αLA per ADGroEL) was 0.5. In addition, the stoichiometry N (αLA molecules per complete ring) in assay [2] amounted to 4.
